According to the RNAGym collection of RNA variant scans (doi:10.1073/pnas.2313332121):

B1: TPR t1 (parent)
chain: GACCAAUCUGCCCUCAGAGCUCGAGAACAUCUUCGGAUGCAGAGGAGGCAGGCUUCGGUGGCGCGAUAGCGCCAACGUCCUCAACCUCCAAUGCAUCCCACCACAUGAUGAUGCCUGAAGAGCCUUGGUUUUUUG

Variants of: B1
Experiment: polymerase ribozyme fitness, log enrichment relative to wild type (log ratio); higher = more active; in vitro selection for triplet polymerase activity
Outline: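 A single round of triplicate in vitro selection, including frozen incubation at −7 °C, was applied to PCR-built, transcribed mutant libraries of each subunit of a heterodimeric triplet polymerase ribozyme. Illumina sequencing of input and output libraries retained genotypes with ≥10 input reads and ≥1 read per output. Fitness is the base-2 logarithm of genotype enrichment divided by wild-type enrichment, from inverse-variance-weighted replicate averages.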

Variant	polymerase ribozyme fitness (log ratio)
C15G A37C C49U C53U	-4.47
U14G C64U C98U	-4.29
C15G A37U C56U C123A	-1.93
C15G A37C C73G G120C G128U	-4.14
C15A U33C A83U C101G G117C	-7.47
C13U A37U	0.687
U14A C49U G60A A100U U106A	-3.83
C13G U59A C62G	-3.87
C13U C70U U109A U132A	-6.56
C13U C22G A26C A37U A41G A50G C115U	-3.21
C13U C89G	-1.01
U14A C72U C89A	-3.16
C13U	0.225
C13U C72U	-0.334
C13G U54C G63A A100U U109A U131G	-6.38
U14G U78A G117A G120A	-2.29
C15A C94U	-1.87
C13U C20G G45A U96A	-4.96
C13U U55G C72U	-0.221
C13U G44A C49U C86G C102U U106G U112G A121C U131A U133A	-6.07
C15G A43U C49U A74G	-4.91

Variant	polymerase ribozyme fitness (log ratio)
U14C G48U U54A	-2.87
C13U A26G G63C U81A G117C	-6.91
C15G C98U A111G	-5.41
C13G G57C C73A G110A	-2.44
C13U U106G	-0.787
C15A C85G	-3.35
U14G C56G A84U U106C G110U	-5.11
C15G C56U A83U C115G C123A	-4.36
C13U U32G U87C	-7.09
U14G G61C	-4.21
U14C C15U C73G	-3.76
C15G C62U C79A A95G G117U	-1.98
U14G A43U G63C G71U C88G	-7.34
C15A C72U	-2.75
C15A C72A	-1.94
U14G G60U G61A	-3.09
U14C G51U C104U	-4.54
U14G A91U	-3.73
C13U G117U	-2.13
U14G C40U U59C A84G U129A	-6.42
C15G C62A	-3.96

Variant	polymerase ribozyme fitness (log ratio)
C15A U92A	-4.5
C13U G122A	0.447
C15A A26G G110A G113U	-6
U14A U54G A84U C98A A103U G117A C123G G128A	-6.1
U14C C62U	-1.6
C13U U14C G69U C70U A90G	-2.94
C13U A18U U81G G117U	-6.34
C13U C56U	0.718
C13U G19A G45C U59C C82U U112A	0.0802
C13U G45U U55C C70U G93U	-3.96
C13G G58A C70U A105C C124A G127A	-4.77
U14G C22U A29G C124G U129C	-3.15
C13U U126A	-1.64
C13U G45C C70U C124A	-0.034
C13G G51C G61C C104U G120C	-6.03
C15G C70G C86A G120A	-4.5
C15A G57A U78A G110U C124G	-3.91
C13U C49U G57A C82G U106A	-0.895
C13G U59C	0.688
C13U G120C	1.89
C13U G120A	1.58

Variant	polymerase ribozyme fitness (log ratio)
C13U G71U A111G U126G	-0.972
C15G A29G G39U G69U	-4.2
C15A G42A G71U G117C	-5.93
C15G C49U U78A U125G	-3.37
C15G A46G G71A C88G	-5.35
C15A C20U	-3.39
C13U G17A A43C U59C U132C	-4.55
C15G A29G C64U C76G C99U U112A	-6.38
C13U U112A C123A G128C	-1.12
C15A U109A	-5.42
U14G U130A	-3.36
C15A A16U C88A	-3.46
C15G C22U A37G U38G G63C G110C	-5.93
C13U G39U C73A A83U A121U	1.24
C13U G61A	-0.508
C13U C88A	-0.243
C13U A29U A46U C56A C97U	-3.44
U14G G58A A95U G117C	-5.13
U14A U21G	-1.66
C13U C20U G63U	-2.31
